Experimental data reported in the DeepSol protein solubility set.

test: soluble on expression in E. coli; label from the status in PepcDB or PDB records

Row | Sequence | soluble on expression in E. coli
1 | MSLAANTQDVEITIPQGASLYQVSERLYDEGVIRSRLWFRYQGKISQADRNIRPGAYTFSPDTDLEEIFTLLQKGVPEQPVIMTIPEGFTLYEIAQRVESLGFGLAEEFIKATQDYFKSRDYSFDTSELYFEMEGYLYPDTYHLKKNQDMKAIVHSLVSPIDAFFSEEYIKRAEELGLSLHEVLTIASIIEREAYHDEERATVSGVIFNRLGIRMSLQIDATVIYGLGEGKEHRNRVLYADLETPNPFNTYMNTGIPPGPIAAPSKASIHATLYPEDHSYLYYVLGEGGHVFSETYQEHLKHVDAYRRRINEGHHHHHH | not soluble
2 | MRSLPIFPDLRAFLDWCARKGDLSRIAEPVSLRHETTAVASKILRGGGPVLRFESLRDTSATMPLVANLFGTRERVAAGLGLGLEQIPELGAFLAALRAPAPVAGMRDALSRWPQLQAALNTRAKIVRSAEAQEVVHEGAAVDLGMIPVPTCWPGDAGPLVTWPVVLTRPHGTSAEETLHYNAGVYRAQVIGRDRLIMRWLAHRGGAGHCRSWMRAGEPMPVALALGCDPALLLAAALPLPEQVSELTFSGVLRGARTPLVAGRTVPLMVPATAEIVVEGWVHPGDMAPEGPFGDHTGYYNSVEDFPVLRVSAITHRKDPLYLTTHTGRPPDEPSVIGEVFNDLAMPVFRQQIPEVKDLYLPPAACSYRIAIVSIDKRYPGQARRVMMALWGMLAQFSYTKMVIVVDEDINPRDWDDVAWAMATRMDPSRDVVLLEKTPMDYLDFASPEPGLAGKIGIDATNKIGPETHREWGEVMTQSPEAEAFADRLIAKLRIGALEHHHHHH | not soluble
3 | MPAFRMPPSTKVEYTSFGTKLSGAMKKIGLLSDTHGYIDEKYRIHFADCDEIWHAGDIGSVTVADYLSGLAPLRAVYGNIDGQDIRLQYPEVLRFCVEEVKVFMTHIGGYPGRYEPRIYRMLVQNPPRLFVCGHSHILKAMYDKKLDMLHLNPGAAGKYGFHAVRTLMRFVIDGRDIRDLQVIELADR | not soluble
4 | MAHHHHHHMEEEKAGSSELVLAQESAWDKFGSKLKDMPFLNNFFENPILGKLFGETELAAALREMKMYDQNFKLSELMYLFEFVISKHIVESYLIGDEETLRVHCGQSAFNSLNASINERKKKKVYLDTNVLIYKNHELKGAQRMEESSPWFIFTFHTQQINCLKNANDEIIEGNIDDIREVVYTIALSKHPEPEREGLLYPYIVREFAIIGNTPSW | soluble
5 | MESLTLQPIARVDGAINLPGSKSVSNRALLLAALACGKTALTNLLDSDDVRHMLNALSALGINYTLSADRTRCDITGNGGALRAPGALELFLGNAGTAMRPLAAALCLGQNEIVLTGEPRMKERPIGHLVDSLRQGGANIDYLEQENYPPLRLRGGFTGGDIEVDGSVSSQFLTALLMTAPLAPKDTIIRVKGELVSKPYIDITLNLMKTFGVEIANHHYQQFVVKGGQQYHSPGRYLVEGDASSASYFLAAGAIKGGTVKVTGIGRKSMQGDIRFADVLEKMGATITWGDDFIACTRGELHAIDMDMNHIPDAAMTIATTALFAKGTTTLRNIYNWRVKETDRLFAMATELRKVGAEVEEGHDYIRITPPAKLQHADIGTYNDHRMAMCFSLVALSDTPVTILDPKCTAKTFPDYFEQLARMSTPA | not soluble
6 | MGSDKIHHHHHHMITISHITAKNMYKSLEERINKFPQGAPPSDTLYKILNVLYTEQEAKLVAQLPIKPFRVKTAAKIWSVSESEAYRVLDKLASKALILDIEDNKGKKYIMPPPMAGFFEFAMMRTRHDIDQKLLAELYYQYMNVEEDFIKDLFYSTETKLGRVYVQEEVLTNDNEVSILDYERATHIIDESTHIGISMCYCRHRMQHVGKACDAPMDICMTFDNVANSLINNKFARRVDKIECKELLHQAYEHNLVQCGENVRKGVTFICNCCGCCCEAMVAAKRFGNLHPVQTTSFIPNINHENCVKCGKCITACPIDAISKVKEDGKEYIKIDEDRCLGCGVCVRNCHKNSIMLLKRDEKIITPANSVHRAVLMAIEKGQLQNLIFDNNALASHRAMGAILSAILKLEPAKKILASKQLKSVYLDKLLSMNDK | not soluble
7 | MGSDKIHHHHHHMSVKILFKNATVFPITSRPFKGDVLVSNGKVEKVGENIEDPDAEIVDLTGKFLFPGFVDAHSHIGLFEEGVGYYYSDGNEATDPVTPHVKALDGFNPQDPAIERALAGGVTSVMIVPGSANPVGGQGSVIKFRSIIVEECIVKDPAGLKMAFGENPKRVYGERKQTPSTRMGTAGVIRDYFTKVKNYMKKKELAQKEGKEFTETDLKMEVGEMVLRKKIPARMHAHRADDILTAIRIAEEFGFNLVIEHGTEAYKISKVLAEKKIPVVVGPLLTFRTKLELKDLTMETIAKLLKDGVLIALMCDHPVIPLEFATVQAATAMRYGAKEEDLLKILTVNPAKILGLEDRIGSIEPGKDADLVVWSGHPFDMKSVVERVYIDGVEVFRR | not soluble
8 | MNGHISNHPSSFGMYPSQMNGYGSSPTFSQTDREHGSKTSAKALYEQRKNYARDSVSSVSDISQYRVEHLTTFVLDRKDAMITVDDGIRKLKLLDAKGKVWTQDMILQVDDRAVSLIDLESKNELENFPLNTIQHCQAVMHSCSYDSVLALVCKEPTQNKPDLHLFQCDEVKANLISEDIESAISDSKGGKQKRRPDALRMISNADPSIPPPPRAPAPAPPGTVTQVDVRSRVAAWSAWAADQGDFEKPRQYHEQEETPEMMAARIDRDVQILNHILDDIEFFITKLQKAAEAFSELSKRKKNKKGKRKGPGEGVLTLRAKPPPPDEFLDCFQKFKHGFNLLAKLKSHIQNPSAADLVHFLFTPLNMVVQATGGPELASSVLSPLLNKDTIDFLNYTVNGDERQLWMSLGGTWMKARAEWPKEQFIPPYVPRFRNGWEPPMLNFMGATMEQDLYQLAESVANVAEHQRKQEIKRLSTEHSSVSEYHPADGYAFSSNIYTRGSHLDQGEAAVAFKPTSNRHIDRNYEPLKTQPKKYAKSKYDFVARNNSELSVLKDDILEILDDRKQWWKVRNASGDSGFVPNNILDIVRPPESGLGRADPPYTHTIQKQRMEYGPRPADTPPAPSPPPTPAPVPVPLPPSTPAPVPVSKVPANITRQNSSSSDSGGSIVRDSQRHKQLPVDRRKSQMEEVQDELIHRLTIGRSAAQKKFHVPRQNVPVINITYDSTPEDVKTWLQSKGFNPVTVNSLGVLNGAQLFSLNKDELRTVCPEGARVYSQITVQKAALEDSSGSSELQEIMRRRQEKISAAASDSGVESFDEGSSH | soluble
9 | MATQHPIGKKTACVVGGTGFVASLLVKLLLQKGYAVNTTVRDPDNQKKVSHLLELQELGDLKIFRADLTDELSFEAPIAGCDFVFHVATPVHFASEDPENDMIKPAIQGVVNVMKACTRAKSVKRVILTSSAAAVTINQLDGTGLVVDEKNWTDIEFLTSAKPPTWGYPASKTLAEKAAWKFAEENNIDLITVIPTLMAGSSLTSDVPSSIGLAMSLITGNEFLINGMKGMQMLSGSVSIAHVEDVCRAHIFVAEKESASGRYICCAANTSVPELAKFLSKRYPQYKVPTDFGDFPPKSKLIISSEKLVKEGFSFKYGIEEIYDESVEYFKAKGLLQN | soluble
10 | MGSDKIHHHHHHVRALVVSVDNTARREGDTGRRVGMQPPEPPFPHNEKESTAVNFKEMQATLMHELRLYHYPVAVKFFFDQAEVDKFKAETEYYTPLKAMTFCQWQIAARMKGQTVYSEREGLGCSNAVFSFGWKDLDEAEVKSHAKYCKDLDQAKRFVETKSRLPEGLIGIAVAPLADATFMPDTVHFYCDNMQAYHLAVDYMAATDTHPLRPQITMNSSACGGNVYTMVEKQFNMLPACSGSYNAGKTERGEINVIIPGEQMQMVYERLLERMEKLGSSSITKPGDGFPGADVCKNCPLIVFKKAKD | not soluble
11 | MSIAIKDDDEFKTIFAEKKTQPVILFFTASWCGPCQMIKPRVEELAAEHKDRLSILKIDVDECDGVGEEYEINSMPTFLLIVDGIKKDQFSGANNTKFEEMVKAALQ | not soluble
12 | MRGSHHHHHHGSVEYTPWLIAGLGNPGNKYYGTRHNVGFEMVDRIAAEEGITMNTEQSKSLLGIGSIGEVPVLVVKPQSYMNYSGEAIGPLAAYYQVPLRHILLIYDDTSLPNGVLRLQKKGGHGRHNGLQNVIEHLDGRREFPRLSIGIGSPPGKMDPRAFLLQKFSSEERVQIDTALEQGVDAVRTLVLKGFSGSTERFNLVQKYKFHRV | soluble
